These results are taken from patent US20240190989A1 (BEIGENE SWITZERLAND, published 2024).

Where a chain is given by its changes, count along the chain named. Names and notes keep the numbering of the source.

The target in assay [1] is T1, TNFRSF1B (CD120b), Sino Biological (UniProt P20333 23-257).
T1 sequence (looked up): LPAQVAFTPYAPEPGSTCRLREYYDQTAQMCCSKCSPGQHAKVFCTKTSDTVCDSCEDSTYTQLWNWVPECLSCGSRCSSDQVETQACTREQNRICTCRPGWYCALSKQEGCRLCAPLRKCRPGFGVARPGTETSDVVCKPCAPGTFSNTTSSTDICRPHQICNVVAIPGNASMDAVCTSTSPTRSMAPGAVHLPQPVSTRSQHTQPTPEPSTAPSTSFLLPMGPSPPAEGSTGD
The experiment in a line: antigen ELISA, antigens coated at 10 µg/ml. On the technique in general: ELISA stands for enzyme-linked immunosorbent assay.

Assay [2] addresses T2, TNFRSF1A (CD120a), Sino Biological (UniProt P19438 30-211, limits assumed).
T2 construct: also called TNFRSF1A(CD12.a)
T2 sequence (looked up): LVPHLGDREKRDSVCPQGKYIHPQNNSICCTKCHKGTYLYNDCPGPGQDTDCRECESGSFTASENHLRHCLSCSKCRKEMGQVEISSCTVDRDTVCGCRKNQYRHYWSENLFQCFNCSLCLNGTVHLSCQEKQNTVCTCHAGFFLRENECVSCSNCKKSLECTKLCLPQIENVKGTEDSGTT
Nature of the assay: antigen ELISA, antigens coated at 10 µg/ml.

A further assay addresses T3, human CD40 ECD-mIgG2a (human).
T3 construct: also called TNFRSF5(CD40)
The experiment in a line: antigen ELISA, antigens coated at 10 µg/ml.

The next assay addresses T4, human OX40 ECD-His (human, UniProt P43489 29-216).
T4 construct: also called human OX40-his; TNFRSF4(OX40)
T4 sequence: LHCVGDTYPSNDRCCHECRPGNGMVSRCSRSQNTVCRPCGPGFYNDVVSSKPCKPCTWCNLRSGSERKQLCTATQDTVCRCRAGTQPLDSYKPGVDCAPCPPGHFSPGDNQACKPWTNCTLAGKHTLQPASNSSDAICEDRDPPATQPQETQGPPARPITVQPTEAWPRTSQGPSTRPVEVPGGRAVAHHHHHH
Nature of the assay: antigen ELISA, antigens coated at 10 µg/ml.

Assay [3] concerns the target T5, full-length human CD137 on cells (Hut78/huCD137, HEK293 transfectants, JK-NFKB-CD137) (human, UniProt Q07011 24-255).
T5 construct: also called native CD137; TNFRSF9
The experiment in a line: flow cytometry on Hut78/huCD137 cells: serially diluted antibody against human CD137 ligand ECD-mIgG2a, bound ligand detected with goat anti-murine IgG-APC [panel B]. (In general: In flow cytometry, cells or beads pass a laser one at a time.)

The target in assay [4] is T6, CEACAM8 transiently expressed on HEK293 cells (Homo sapiens (Human), UniProt P31997 35-320).
T6 sequence: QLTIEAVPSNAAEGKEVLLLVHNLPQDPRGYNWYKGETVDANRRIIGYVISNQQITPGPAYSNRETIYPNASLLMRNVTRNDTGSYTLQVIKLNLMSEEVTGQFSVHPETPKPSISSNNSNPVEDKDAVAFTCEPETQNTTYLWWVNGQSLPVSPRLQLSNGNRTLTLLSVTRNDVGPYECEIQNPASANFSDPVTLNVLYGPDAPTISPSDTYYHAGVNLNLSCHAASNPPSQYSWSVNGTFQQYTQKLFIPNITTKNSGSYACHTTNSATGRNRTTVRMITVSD
The experiment in a line: flow cytometry on transiently transfected HEK293 cells [panel B].

Assay [5] deals with T7, CEACAM7 transiently expressed on HEK293 cells (Homo sapiens (Human), UniProt Q14002 36-242).
T7 sequence: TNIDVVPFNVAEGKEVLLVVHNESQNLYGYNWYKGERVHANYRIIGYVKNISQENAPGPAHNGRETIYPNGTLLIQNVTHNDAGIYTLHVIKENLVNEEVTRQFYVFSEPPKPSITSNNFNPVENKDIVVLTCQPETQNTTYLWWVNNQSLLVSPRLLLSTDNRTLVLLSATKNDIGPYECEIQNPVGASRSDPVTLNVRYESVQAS
The assay is described as above.

For assay [6], the target named is T8, full-length human CEA on cells (MKN45, LOVO, L929/huCEA, CT26/CEA, CT26-OS8-CEA) (human, UniProt P06731 35-685).
T8 construct: also called CEACAM5; native CEA
T8 sequence: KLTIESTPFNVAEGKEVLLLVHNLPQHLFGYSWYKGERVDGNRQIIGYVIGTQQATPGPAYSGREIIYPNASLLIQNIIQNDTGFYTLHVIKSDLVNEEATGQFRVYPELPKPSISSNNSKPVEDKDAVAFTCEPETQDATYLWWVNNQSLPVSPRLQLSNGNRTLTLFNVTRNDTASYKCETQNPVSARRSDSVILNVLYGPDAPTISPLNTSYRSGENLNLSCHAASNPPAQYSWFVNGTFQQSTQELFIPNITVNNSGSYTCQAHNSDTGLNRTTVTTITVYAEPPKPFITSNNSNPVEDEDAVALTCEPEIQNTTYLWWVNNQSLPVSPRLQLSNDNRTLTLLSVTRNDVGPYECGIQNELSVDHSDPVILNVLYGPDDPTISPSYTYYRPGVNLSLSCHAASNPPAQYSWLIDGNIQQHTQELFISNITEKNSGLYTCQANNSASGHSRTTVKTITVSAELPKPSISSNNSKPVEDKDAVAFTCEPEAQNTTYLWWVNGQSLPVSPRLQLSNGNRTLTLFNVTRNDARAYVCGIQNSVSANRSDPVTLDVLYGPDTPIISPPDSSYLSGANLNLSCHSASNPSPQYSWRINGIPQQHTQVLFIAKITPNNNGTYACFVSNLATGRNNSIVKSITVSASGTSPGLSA
Nature of the assay: flow cytometry on MKN45 cells, no soluble CEA.

Assay [7] has as its target T9, human CEACAM6, amino acids 1-320 with C-terminal 6xHis tag (human, UniProt P40199 35-320).
T9 sequence: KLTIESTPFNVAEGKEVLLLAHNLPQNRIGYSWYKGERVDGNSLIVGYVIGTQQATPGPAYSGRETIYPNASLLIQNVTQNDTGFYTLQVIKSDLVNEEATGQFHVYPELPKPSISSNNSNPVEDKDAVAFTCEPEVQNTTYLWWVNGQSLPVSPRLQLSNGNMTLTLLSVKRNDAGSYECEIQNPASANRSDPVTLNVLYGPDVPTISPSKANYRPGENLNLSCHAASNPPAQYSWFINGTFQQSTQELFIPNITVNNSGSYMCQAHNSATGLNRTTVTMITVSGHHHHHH
The experiment in a line: antigen ELISA, antigens coated at 10 µg/ml, anti-human Fc-HRP [panel A].

Assay [8] concerns the target T10, CEACAM1 (Cat. No. 10822-H08H, Sino Biological) (Homo sapiens (Human), UniProt P13688 35-428).
T10 construct: Bought protein
T10 sequence: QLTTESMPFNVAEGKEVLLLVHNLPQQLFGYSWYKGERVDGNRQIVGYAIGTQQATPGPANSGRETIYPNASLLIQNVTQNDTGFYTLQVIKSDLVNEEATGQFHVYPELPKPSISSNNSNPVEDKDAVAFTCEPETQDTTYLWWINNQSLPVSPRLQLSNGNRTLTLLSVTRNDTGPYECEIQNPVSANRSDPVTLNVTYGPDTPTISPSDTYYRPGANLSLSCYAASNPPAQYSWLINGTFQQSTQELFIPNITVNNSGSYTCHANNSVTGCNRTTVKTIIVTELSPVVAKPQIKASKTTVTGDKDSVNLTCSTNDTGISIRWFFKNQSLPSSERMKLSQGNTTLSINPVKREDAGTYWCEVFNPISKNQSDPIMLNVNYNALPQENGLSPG
The description is as above.

The target of assay [9] is T11, CEACAM3 transiently expressed on HEK293 cells (Homo sapiens (Human), UniProt P40198 35-252).
T11 sequence: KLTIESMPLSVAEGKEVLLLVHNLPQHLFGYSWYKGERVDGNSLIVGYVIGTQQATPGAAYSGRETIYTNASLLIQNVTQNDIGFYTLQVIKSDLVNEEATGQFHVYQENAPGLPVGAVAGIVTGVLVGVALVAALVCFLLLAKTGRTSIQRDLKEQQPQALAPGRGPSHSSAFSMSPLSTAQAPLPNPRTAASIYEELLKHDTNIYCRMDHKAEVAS
Nature of the assay: flow cytometry on transfected HEK293 cells.

The target of assay [10] is T12, human CD137 ECD-mIgG2a (human).
T12 construct: ECD 24-183 of huCD137 fused to mouse IgG2a Fc; also called huCD137-mIgG2a; huCD137
The experiment in a line: SPR, Format A-CEAxCD137; Format A-CEAxCD137, not Fc fusion VH.

Assay [11] concerns the target T12, human CD137 ECD-mIgG2a. The experiment in a line: SPR, A-CEAxCD137 format.
In assay [12] the target is T5, full-length human CD137 on cells …. The experiment in a line: flow cytometry on Hut78/huCD137 cells.
In assay [13] the target is T12, human CD137 ECD-mIgG2a. The experiment in a line: SPR, Format A-CEAxCD137. For orientation: In SPR one partner is held on a chip, and binding of the other changes the refractive index at the surface.

One may read the EC50 (read off the curve) as the concentration giving half of the maximal effect. Low values mean a more potent agent, high ones a less potent agent. A word on the Kd: it is the concentration at which binding is half-saturated. Lower therefore signals a tighter complex. The EC50 is the concentration that produces a half-maximal response.

T12 sequence (chain, as listed by the source limits assumed): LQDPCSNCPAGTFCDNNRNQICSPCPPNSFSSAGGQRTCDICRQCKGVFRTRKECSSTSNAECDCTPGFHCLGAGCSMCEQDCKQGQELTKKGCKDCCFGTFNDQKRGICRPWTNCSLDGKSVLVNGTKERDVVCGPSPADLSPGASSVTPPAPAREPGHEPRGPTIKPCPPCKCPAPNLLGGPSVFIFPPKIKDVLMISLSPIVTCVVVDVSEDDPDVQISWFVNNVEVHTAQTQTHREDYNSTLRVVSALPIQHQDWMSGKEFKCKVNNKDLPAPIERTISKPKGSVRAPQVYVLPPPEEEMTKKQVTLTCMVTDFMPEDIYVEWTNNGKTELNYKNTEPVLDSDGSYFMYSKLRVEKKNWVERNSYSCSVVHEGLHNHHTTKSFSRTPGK
T5 sequence (Q07011 24-255 limits assumed): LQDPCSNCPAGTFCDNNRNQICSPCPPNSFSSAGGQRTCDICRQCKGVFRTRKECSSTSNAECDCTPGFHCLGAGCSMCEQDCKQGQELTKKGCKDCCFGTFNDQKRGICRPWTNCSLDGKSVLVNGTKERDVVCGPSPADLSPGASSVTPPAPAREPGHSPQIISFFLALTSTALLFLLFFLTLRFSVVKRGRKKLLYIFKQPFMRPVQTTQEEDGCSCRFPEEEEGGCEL
T3 sequence (chain, as listed by the source limits assumed): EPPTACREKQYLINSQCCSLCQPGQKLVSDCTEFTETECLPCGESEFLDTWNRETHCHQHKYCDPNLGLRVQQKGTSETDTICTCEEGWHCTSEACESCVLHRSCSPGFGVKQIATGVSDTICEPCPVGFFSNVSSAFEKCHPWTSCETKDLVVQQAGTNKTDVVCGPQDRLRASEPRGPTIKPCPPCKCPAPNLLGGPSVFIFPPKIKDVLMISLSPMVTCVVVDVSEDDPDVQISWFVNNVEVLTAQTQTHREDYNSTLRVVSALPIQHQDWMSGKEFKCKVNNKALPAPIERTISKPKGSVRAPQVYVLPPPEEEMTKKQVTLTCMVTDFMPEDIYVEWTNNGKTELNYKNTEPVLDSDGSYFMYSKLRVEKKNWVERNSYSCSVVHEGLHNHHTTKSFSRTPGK

B1: Urelumab analog (antibody, human IgG4 S228P, kappa, V domains shown)
VH: QVQLQQWGAGLLKPSETLSLTCAVYGGSFSGYYWSWIRQSPEKGLEWIGEINHGGYVTYNPSLESRVTISVDTSKNQFSLKLSSVTAADTAVYYCARDYGPGNYDWYFDLWGRGTLVTVSS
VL: EIVLTQSPATLSLSPGERATLSCRASQSVSSYLAWYQQKPGQAPRLLIYDASNRATGIPARFSGSGSGTDFTLTISSLEPEDFAVYYCQQRSNWPPALTFGGGTKVEIKR
notes: also called Urelumab analog antibody
In the case of B1, the binding result (in assay [1]; in assay [2]; with human CD40 ECD-mIgG2a; in the assay with human OX40 ECD-His) was “no binding (tested: not shown)” each time. Also, the “IC50 (read off the curve)” value in assay [3] was around 0.03 µg/mL.

B2: BGA113K (BGA113 with Y57K in the heavy chain) (antibody, human IgG1, V domains shown)
VH: QVQLVQSGAEVKKPGASVKVSCKASGYIFTSYYLHWVRQAPGQGLEWIGYINPQTGKTSYAQKFQGRVTMTRDTSTSTVYMELSSLRSEDTAVYYCAREYGNYNYPLDYWGQGTLVTVSS
VL: DIQMTQSPSSLSASVGDRVTITCRASENQYGYLAWYQQKPGKVPKLLIYNYKNLVEGVPSRFSGSGSGTDFTLTISSLQPEDVATYYCQHHLGTPYTFGQGTKVEIK
In the case of B2, the binding result in assay [4] is listed as “no binding (tested: 2 µg/ml (not on the sheet))”; in [5] it was “no binding (tested: 2 µg/ml (not on the sheet))”; in assay [7] it was “no binding (tested: not shown)”; in assay [8], “no binding (tested: not shown)”; in assay [9], “no binding (tested: 2 ug/ml)”. Also, the concentration giving a half-maximal response (EC50 (read off the curve)) in assay [6] is around 0.8 µg/mL.

B3: A-CEAxCD137-M3 (Format A with BGA-4712-M3) (bispecific antibody, human IgG1, kappa)
heavy: QVQLVQSGAEVKKPGASVKVSCKASGYIFTSYYLHWVRQAPGQGLEWIGYINPQTGKTSYAQKFQGRVTMTRDTSTSTVYMELSSLRSEDTAVYYCAREYGNYNYPLDYWGQGTLVTVSSASTKGPSVFPLAPSSKSTSGGTAALGCLVKDYFPEPVTVSWNSGALTSGVHTFPAVLQSSGLYSLSSVVTVPSSSLGTQTYICNVNHKPSNTKVDKKVEPKSCDKTHTCPPCPAPPAAGPSVFLFPPKPKDTLMISRTPEVTCVVVDVSHEDPEVKFNWYVDGVEVHNAKTKPREEQYNSTYRVVSVLTVLHQDWLNGKEYKCKVSNKALAAPIEKTISKAKGQPREPQVYTLPPSREEMTKNQVSLTCLVKGFYPSDIAVEWESNGQPENNYKTTPPVLDSDGSFFLYSKLTVDKSRWQQGNVFSCSVMHEALHNHYTQKSLSLSPGKGGGGSEVQLLESGGGLVQPGGSLRLSCAASGFTLSAEDVGWVRQAPGKGLEWVSAILDFGGSTYYAESVKGRFTISRDNAKNTLYLQMSSLRAEDTAVYYCARVVYHAGGGVTFDYWGQGTLVTVSS
light: DIQMTQSPSSLSASVGDRVTITCRASENQYGYLAWYQQKPGKVPKLLIYNYKNLVEGVPSRFSGSGSGTDFTLTISSLQPEDVATYYCQHHLGTPYTFGQGTKVEIKRTVAAPSVFIFPPSDEQLKSGTASVVCLLNNFYPREAKVQWKVDNALQSGNSQESVTEQDSKDSTYSLSSTLTLSKADYEKHKVYACEVTHQGLSSPVTKSFNRGEC
As for B3, the Kd in the assay with human CD137 ECD-mIgG2a [10] worked out at 255 nM; in the assay with human CD137 ECD-mIgG2a [11], 289 nM. In addition, the concentration giving a half-maximal response (EC50) in [12] is 0.52 µg/mL.

B4: Format A-BGA-7556 (bispecific antibody, human IgG1, kappa)
heavy: B3 heavy with W566R, L571Q
light: B3 light
notes: also called BGA-7556 Format A-CEAxCD137
B4: the values for the Kd with human CD137 ECD-mIgG2a [11] and with human CD137 ECD-mIgG2a [13] were 649 nM and 669 nM, respectively. In assay [12], this molecule came in with a concentration for a half-maximal effect (EC50) of 3.23 µg/mL.
